Patent US20240376185A1 (SMIVET B V, published 2024)

T1: recombinant tetanus toxin fragment C (rTTC) (Clostridium tetani, UniProt P04958 865-1315)
T1 sequence: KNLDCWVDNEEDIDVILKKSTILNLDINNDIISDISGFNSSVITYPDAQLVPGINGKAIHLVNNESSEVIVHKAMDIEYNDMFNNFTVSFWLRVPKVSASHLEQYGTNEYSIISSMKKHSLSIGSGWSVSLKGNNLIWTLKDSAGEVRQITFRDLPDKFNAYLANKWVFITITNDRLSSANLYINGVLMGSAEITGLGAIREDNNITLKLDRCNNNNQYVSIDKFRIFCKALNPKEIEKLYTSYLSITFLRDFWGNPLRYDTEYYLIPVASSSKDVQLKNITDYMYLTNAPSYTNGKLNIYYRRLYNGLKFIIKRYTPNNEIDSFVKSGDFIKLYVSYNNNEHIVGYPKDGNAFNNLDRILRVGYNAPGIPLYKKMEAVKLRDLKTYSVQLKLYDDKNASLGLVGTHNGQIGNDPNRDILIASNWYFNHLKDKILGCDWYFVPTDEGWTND

B1: SVT02-GS2-SVA12M2-H6 (bispecific antibody)
chain: QVQLQQSGGGSVQAGGSLRLSCVGPQRTFSTYGMGWFRQAPGKEREFVAGINYKGDTTYYADSVKGRFTISRDNAKNTLYLQMDSLKPEDRAVYQCARKGGLGGDYRDAGQYRYWGQGTQVTVSSGGGGSGGGSEVQLVESGGGLVQAGGSLRLSCAASGRTFSYYPMAWFRQAPGQEREFVAAIIGADTTYYADSLKGRFTISRDNAKNMVYLQMNSLKPEDTAVYYCAARNTYWSDVYYREGQYTNWGQGTQVTVSSHHHHHH
B2: SVT06-GS2-SVG13M4-H6 (bispecific antibody)
chain: QVQLQESGGGSVQAGGSLRLSCTASELSYDDYTIAWFRRAAGEGRVEDGEGVASITKSYDRAYDNKINYGHSVKGRFTISRDNAKNTVYLQMTDLLPSDTAVYYCALDITPPGGVGASLTEGFLFDYWGQGTQVTVSSGGGGSGGGSEVQLVESGGGLVQPGGSLRLSCEASGFTFDDYGMSWVRQAPGKGLEWVSSLTPNGGSTYYADSVKGRFTISRDNAKNTLYLQMNSLKPEDTALYYCAKNSYYGAMDYWGQGTQVTVSSHHHHHH
B3: SVT02-GS2-SVG13M4-H6 (bispecific antibody)
chain: QVQLQQSGGGSVQAGGSLRLSCVGPQRTFSTYGMGWFRQAPGKEREFVAGINYKGDTTYYADSVKGRFTISRDNAKNTLYLQMDSLKPEDRAVYQCARKGGLGGDYRDAGQYRYWGQGTQVTVSSGGGGSGGGSEVQLVESGGGLVQPGGSLRLSCEASGFTFDDYGMSWVRQAPGKGLEWVSSLTPNGGSTYYADSVKGRFTISRDNAKNTLYLQMNSLKPEDTALYYCAKNSYYGAMDYWGQGTQVTVSSHHHHHH
B4: SVT15-3FW4M-GS2-SVG06M4-H6 (bispecific antibody)
chain: QVQLQESGGGLVQTGGSLRLSCRASGRAFANYHFGWFRQAPGKDREFVASISWKGGSTYYANFALGRFTSSVDRAESSVYLQMSGLTPEDTATYYCAAHDGGDWNYHTGMDYWGQGTQVTVSSGGGGSGGGSEVQLVESGGALVQPGGSLRLSCAASGFPFSAYDMTWVRQAPGQGLEWVSTIHKSGGITTYADSVKGRFTISRDNAKNTLYLQMNNLESEDTAVYYCAKALRAHNSDYVGRNALGSWGQGTQVTVSSHHHHHH
B5: SVT02 (VHH)
VHH: QVQLQQSGGGSVQAGGSLRLSCVGPQRTFSTYGMGWFRQAPGKEREFVAGINYKGDTTYYADSVKGRFTISRDNAKNTLYLQMDSLKPEDRAVYQCARKGGLGGDYRDAGQYRYWGQGTQVTVSS
B6: SVT02L (VHH)
VHH: B5 VHH
notes: yeast-produced
B7: SVT03 (VHH)
VHH: QVQLQQSGGGSVQTGDSLTLSCTASGGSLNSYFVGWFRQSGGKEREFVSVIARTGRSTSYADSVKGRFTISRDNAANTVFLTMNNLRPDDTAIYYCAAVGRPGVLHLTQSYDYWGQGTQVTVSS
B8: SVT03L (VHH)
VHH: B7 VHH
notes: yeast-produced
B9: SVT15-3FW4M-GS2-SVG13M4-H6 (bispecific antibody)
chain: QVQLQESGGGLVQTGGSLRLSCRASGRAFANYHFGWFRQAPGKDREFVASISWKGGSTYYANFALGRFTSSVDRAESSVYLQMSGLTPEDTATYYCAAHDGGDWNYHTGMDYWGQGTQVTVSSGGGGSGGGSEVQLVESGGGLVQPGGSLRLSCEASGFTFDDYGMSWVRQAPGKGLEWVSSLTPNGGSTYYADSVKGRFTISRDNAKNTLYLQMNSLKPEDTALYYCAKNSYYGAMDYWGQGTQVTVSSHHHHHH

Tests used:
[1] = molecular target: T2, horse albumin (horse Alb) (horse, UniProt P35747 25-607); assay: bridging ELISA: cAb-TT2-captured TeNT, SDA, biotinylated horse Alb, StrepPO
T2 sequence (P35747 25-607 limits assumed): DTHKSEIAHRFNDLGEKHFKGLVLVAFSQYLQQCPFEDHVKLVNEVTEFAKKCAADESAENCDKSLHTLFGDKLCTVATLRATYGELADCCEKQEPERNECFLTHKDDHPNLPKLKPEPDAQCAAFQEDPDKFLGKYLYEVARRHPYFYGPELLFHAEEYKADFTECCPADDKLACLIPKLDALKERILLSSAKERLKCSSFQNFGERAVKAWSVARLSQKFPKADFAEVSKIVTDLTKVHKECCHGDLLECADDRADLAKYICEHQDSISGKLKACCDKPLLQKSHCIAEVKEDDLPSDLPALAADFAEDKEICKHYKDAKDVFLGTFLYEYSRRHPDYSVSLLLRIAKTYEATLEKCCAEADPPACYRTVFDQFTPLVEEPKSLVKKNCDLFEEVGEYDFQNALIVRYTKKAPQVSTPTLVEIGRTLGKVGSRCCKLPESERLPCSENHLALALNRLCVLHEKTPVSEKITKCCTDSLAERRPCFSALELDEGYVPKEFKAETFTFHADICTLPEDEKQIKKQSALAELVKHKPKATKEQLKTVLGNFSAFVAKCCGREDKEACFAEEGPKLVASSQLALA

dog albumin (dog Alb) [2] = molecular target: T3, dog albumin (dog Alb) (dog, UniProt P49822 25-608); assay: ELISA: coated dog Alb, anti-his6 PO
T3 construct: also called Canine albumin
T3 sequence (P49822 25-608 limits assumed): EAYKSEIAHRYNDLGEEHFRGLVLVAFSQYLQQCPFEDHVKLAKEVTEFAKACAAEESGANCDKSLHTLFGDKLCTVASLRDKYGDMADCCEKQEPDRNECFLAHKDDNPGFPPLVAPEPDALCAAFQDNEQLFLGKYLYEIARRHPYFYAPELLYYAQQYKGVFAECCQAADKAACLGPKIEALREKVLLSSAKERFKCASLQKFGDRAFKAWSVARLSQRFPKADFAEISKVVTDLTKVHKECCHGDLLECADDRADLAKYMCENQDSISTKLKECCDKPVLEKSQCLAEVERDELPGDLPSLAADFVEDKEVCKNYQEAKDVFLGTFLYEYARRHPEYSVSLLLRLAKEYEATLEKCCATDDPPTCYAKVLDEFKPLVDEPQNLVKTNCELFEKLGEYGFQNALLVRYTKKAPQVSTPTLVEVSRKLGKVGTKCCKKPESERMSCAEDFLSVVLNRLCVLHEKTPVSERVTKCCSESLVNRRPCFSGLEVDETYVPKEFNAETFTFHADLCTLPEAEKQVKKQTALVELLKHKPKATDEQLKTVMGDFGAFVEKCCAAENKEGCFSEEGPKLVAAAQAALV

dog albumin (dog Alb) [3] = molecular target: T3, dog albumin (dog Alb); assay: ELISA: coated dog Alb, anti-his6 PO; remark: listed apart in the source
[4] = molecular target: T2, horse albumin (horse Alb); assay: bridging ELISA: cAb-TT2-captured TeNT, SDA, biotinylated horse Alb, StrepPO; remark: listed apart in the source
[5] = molecular target: T4, tetanus neurotoxin (TeNT), authentic tetanus holotoxin (Clostridium tetani, UniProt P04958 2-1315); assay: ELISA: directly coated TeNT, anti-his6 PO
Target sequence in this assay (P04958 2-457 limits assumed, chain 1 of 2): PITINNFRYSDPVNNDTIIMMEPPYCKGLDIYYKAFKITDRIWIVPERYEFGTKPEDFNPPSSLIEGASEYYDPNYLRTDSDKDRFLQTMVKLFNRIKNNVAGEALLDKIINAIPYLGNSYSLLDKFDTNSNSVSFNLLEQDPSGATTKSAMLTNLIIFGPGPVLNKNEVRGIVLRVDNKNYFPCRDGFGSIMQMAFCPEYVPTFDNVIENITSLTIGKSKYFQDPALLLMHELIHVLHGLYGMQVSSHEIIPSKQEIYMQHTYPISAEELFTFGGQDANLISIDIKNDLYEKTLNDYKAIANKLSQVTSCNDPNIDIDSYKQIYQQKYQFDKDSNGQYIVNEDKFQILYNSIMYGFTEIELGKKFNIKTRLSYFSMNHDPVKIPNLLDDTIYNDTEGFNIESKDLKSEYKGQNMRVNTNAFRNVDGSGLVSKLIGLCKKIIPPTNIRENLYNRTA
Target sequence in this assay (P04958 458-1315 limits assumed, chain 2 of 2): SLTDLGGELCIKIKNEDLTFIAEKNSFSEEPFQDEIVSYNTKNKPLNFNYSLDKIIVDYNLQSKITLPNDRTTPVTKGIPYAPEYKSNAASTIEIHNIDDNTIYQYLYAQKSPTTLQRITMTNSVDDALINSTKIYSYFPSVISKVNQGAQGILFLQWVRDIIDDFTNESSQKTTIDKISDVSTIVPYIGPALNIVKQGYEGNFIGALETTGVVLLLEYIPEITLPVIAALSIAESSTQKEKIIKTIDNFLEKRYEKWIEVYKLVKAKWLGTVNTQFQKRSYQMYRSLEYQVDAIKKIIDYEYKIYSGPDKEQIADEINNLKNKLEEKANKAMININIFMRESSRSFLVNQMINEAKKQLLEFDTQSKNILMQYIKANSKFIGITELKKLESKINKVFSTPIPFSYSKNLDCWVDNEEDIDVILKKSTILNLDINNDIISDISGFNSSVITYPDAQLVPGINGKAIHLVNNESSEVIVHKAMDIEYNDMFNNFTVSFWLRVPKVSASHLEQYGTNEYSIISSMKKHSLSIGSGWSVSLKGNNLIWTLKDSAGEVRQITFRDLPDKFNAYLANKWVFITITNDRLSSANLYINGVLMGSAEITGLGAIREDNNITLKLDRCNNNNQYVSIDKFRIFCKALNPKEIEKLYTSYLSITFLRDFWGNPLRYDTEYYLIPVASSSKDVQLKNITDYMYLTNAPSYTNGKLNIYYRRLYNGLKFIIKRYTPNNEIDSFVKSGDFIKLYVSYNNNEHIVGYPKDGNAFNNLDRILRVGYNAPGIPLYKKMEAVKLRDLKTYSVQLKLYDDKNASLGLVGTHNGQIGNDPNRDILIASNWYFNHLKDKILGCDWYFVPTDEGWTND

[6] = molecular target: T4, tetanus neurotoxin (TeNT), authentic …; assay: bridging ELISA: coated dog IgG, SDA, biotinylated TeNT, StrepPO
Target sequence in this assay (P04958 2-457 limits assumed, chain 1 of 2): as the sequence (P04958 2-457 limits assumed, chain 1 of 2) above
Target sequence in this assay (P04958 458-1315 limits assumed, chain 2 of 2): as the sequence (P04958 458-1315 limits assumed, chain 2 of 2) above

[7] = molecular target: T4, tetanus neurotoxin (TeNT), authentic …; assay: as above; remark: listed apart in the source
Target sequence in this assay (P04958 2-457 limits assumed, chain 1 of 2): as the sequence (P04958 2-457 limits assumed, chain 1 of 2) above
Target sequence in this assay (P04958 458-1315 limits assumed, chain 2 of 2): as the sequence (P04958 458-1315 limits assumed, chain 2 of 2) above

[8] = molecular target: T4, tetanus neurotoxin (TeNT), authentic …; assay: bridging ELISA: coated TeNT, SDA, biotinylated TeNT, StrepPO (bivalent binding)
Target sequence in this assay (P04958 2-457 limits assumed, chain 1 of 2): as the sequence (P04958 2-457 limits assumed, chain 1 of 2) above
Target sequence in this assay (P04958 458-1315 limits assumed, chain 2 of 2): as the sequence (P04958 458-1315 limits assumed, chain 2 of 2) above

[9] = molecular target: T4, tetanus neurotoxin (TeNT), authentic …; assay: as above; remark: listed apart in the source
Target sequence in this assay (P04958 2-457 limits assumed, chain 1 of 2): as the sequence (P04958 2-457 limits assumed, chain 1 of 2) above
Target sequence in this assay (P04958 458-1315 limits assumed, chain 2 of 2): as the sequence (P04958 458-1315 limits assumed, chain 2 of 2) above

[10] = molecular target: T4, tetanus neurotoxin (TeNT), authentic …; assay: ELISA: directly coated TeNT, goat anti-llama Ig PO
Target sequence in this assay (P04958 2-457 limits assumed, chain 1 of 2): as the sequence (P04958 2-457 limits assumed, chain 1 of 2) above
Target sequence in this assay (P04958 458-1315 limits assumed, chain 2 of 2): as the sequence (P04958 458-1315 limits assumed, chain 2 of 2) above

[11] = molecular target: dog IgG (chrompure dog IgG) (dog)
[12] = molecular target: T4, tetanus neurotoxin (TeNT), authentic …; assay: GT1b-TeNT inhibition ELISA
[13] = molecular target: T4, tetanus neurotoxin (TeNT), authentic …; assay: cell-based or functional assay
[14] = molecular target: T4, tetanus neurotoxin (TeNT), authentic …; assay: ELISA: directly coated TeNT, goat anti-llama Ig PO; remark: listed apart in the source
[15] = molecular target: dog IgG (chrompure dog IgG) (dog); remark: listed apart in the source
[16] = molecular target: T4, tetanus neurotoxin (TeNT), authentic …; assay: ELISA: directly coated TeNT, anti-his6 PO; remark: listed apart in the source
[17] = molecular target: T4, tetanus neurotoxin (TeNT), authentic …; assay: BLI (Octet Red96): biotinylated TeNT on SA sensor, SDA as analyte
[18] = molecular target: T4, tetanus neurotoxin (TeNT), authentic …; assay: GT1b-TeNT inhibition ELISA; remark: listed apart in the source
[19] = molecular target: T5, tetanus neurotoxin (TeNT), authentic tetanus holotoxin (Clostridium tetani, UniProt P04958 2-1315); assay: GT1b-TeNT inhibition ELISA (no SDA: 1.302, 1.257)
[20] = molecular target: T1, recombinant tetanus toxin fragment C …; assay: ELISA, directly coated rTTC
[21] = molecular target: T5, tetanus neurotoxin (TeNT), authentic …; assay: ELISA, directly coated TeNT, E. coli supernatant
[22] = molecular target: T5, tetanus neurotoxin (TeNT), authentic …; assay: ELISA, cAb-TT2 captured TeNT, E. coli supernatant
[23] = molecular target: T1, recombinant tetanus toxin fragment C …; assay: ELISA, directly coated rTTC, E. coli supernatant

| Binder | maximal absorbance value [5] [A450] | maximal absorbance value [6] [A450] | Effective SDA Concentration at A450 0.3 [7] [ng/mL] | maximal absorbance value [8] [A450] | Effective SDA Concentration at A450 0.3 [9] [ng/mL] | maximal absorbance value [10] [A450] | minimal absorbance value (GT1b-TeNT inhibition) [12] [A450] | Endpoint dilution factor [13] | SDA concentration providing full protection [13] [nM] | Effective SDA Concentration at A450 0.15 [14] [ng/mL] | maximal absorbance value [15] [A450] | Effective SDA Concentration at A450 0.15 [16] [ng/mL] | Kd [17] [pM] | koff [17] [s⁻¹] | kon [17] [M⁻¹ s⁻¹] | Effective SDA Concentration at A450 0.56 [18] [ng/mL] | binding result [20] | also measured |
| --- | --- | --- | --- | --- | --- | --- | --- | --- | --- | --- | --- | --- | --- | --- | --- | --- | --- | --- |
| B1 |  |  |  |  |  |  |  |  |  |  |  |  |  |  |  |  |  | Effective SDA Concentration at A450 0.7 [1]: 11 ng/mL; Effective SDA Concentration at A450 0.2 (dog albumin (dog Alb) [2]): 13 ng/mL; maximal absorbance value (dog albumin (dog Alb) [3]): 1.91 A450; maximal absorbance value [4]: 1.1 A450 |
| B2 | 1.44 | 1.61 | < 0.49 | 0.98 | 9.6 | 1.2 | 0.22 | 2.4 | 1000 | 2 | 1.18 | 3.4 | 123 | 8.24e-05 | 670000 | 93 |  | Effective SDA Concentration at A450 0.2 [11]: 46 ng/mL; Potency IU/mg [13]: 1.04 IU/mg |
| B3 | 0.06 | 1.32 | 9.1 | 0.19 | > 1000 | 0.09 | 0.77 | < 1 | > 1000 | > 1000 | 0.18 | > 1000 | 98.7 | 0.000121 | 1.23e+06 | > 1000 |  |  |
| B4 | 0.37 | 1.3 | 8.3 | 0.29 | > 1000 | 1.23 | 0.12 |  |  | 4.3 | 0.07 | 37 |  |  |  | 131 |  |  |
| B5 |  |  |  |  |  |  |  |  |  |  |  |  |  |  |  |  | no binding (tested: tenfold diluted supernatant) | absorbance at 450 nm [19]: 1.34 A450; absorbance at 450 nm [21]: 0.078 A450; absorbance at 450 nm [22]: 0.511 A450; absorbance at 450 nm [23]: 0.06 A450 |
| B6 |  |  |  |  |  |  |  |  |  |  |  |  |  |  |  |  | no binding |  |
| B7 |  |  |  |  |  |  |  |  |  |  |  |  |  |  |  |  | no binding (tested: tenfold diluted supernatant) | absorbance at 450 nm [19]: 1.29 A450; absorbance at 450 nm [21]: 0.091 A450; absorbance at 450 nm [22]: 0.534 A450; absorbance at 450 nm [23]: 0.061 A450 |
| B8 |  |  |  |  |  |  |  |  |  |  |  |  |  |  |  |  | no binding |  |
| B9 | 1.51 | 1.47 | 2.2 | 0.78 | 23 | 1.16 | 0.13 | 2.8 | 500 | 2 | 1 | 4.9 | 15.8 | 6.77e-06 | 429000 | 77 |  | Effective SDA Concentration at A450 0.2 [11]: 63 ng/mL; Potency IU/mg [13]: 1.21 IU/mg |
